{"source": "patent US20190338048A1", "experiment_in_all_cases": "LCCA, SPR of light chain tags", "key": {"[1]": {"biological_target": "Pertuzumab kappa light chain Q124E_V133D (L2), N-terminal HA tag"}, "[2]": {"biological_target": "Pertuzumab kappa light chain V133D (L2), N-terminal HA tag"}, "[3]": {"biological_target": "CAT-2200 lambda light chain S176K_Y178K (L1), N-terminal FLAG tag"}, "[4]": {"biological_target": "CAT-2200 lambda light chain S176K_Y178R (L1), N-terminal FLAG tag"}, "[5]": {"biological_target": "Pertuzumab kappa light chain Q124E_V133D (L2), N-terminal HA tag", "remark": "listed apart in the source"}, "[6]": {"biological_target": "Pertuzumab kappa light chain V133D (L2), N-terminal HA tag", "remark": "listed apart in the source"}, "[7]": {"biological_target": "Pertuzumab kappa light chain Q124E_V133D (L2), N-terminal HA tag", "remark": "listed apart in the source"}, "[8]": {"biological_target": "CAT-2200 lambda light chain S176K_Y178R (L1), N-terminal FLAG tag", "remark": "listed apart in the source"}, "[9]": {"biological_target": "Pertuzumab kappa light chain S131D_V133G_T178F (L2), N-terminal HA tag"}, "[10]": {"biological_target": "Pertuzumab kappa light chain S131E_V133G_T178F (L2), N-terminal HA tag"}, "[11]": {"biological_target": "Pertuzumab kappa light chain S176D_T178E (L2), N-terminal HA tag"}, "[12]": {"biological_target": "Pertuzumab kappa light chain S176E_T178E (L2), N-terminal HA tag"}, "[13]": {"biological_target": "CAT-2200 lambda light chain S176K_Y178L (L1), N-terminal FLAG tag"}, "[14]": {"biological_target": "CAT-2200 lambda light chain Y178K (L1), N-terminal FLAG tag"}, "[15]": {"biological_target": "Pertuzumab kappa light chain S176D_T178E (L2), N-terminal HA tag", "remark": "listed apart in the source"}, "[16]": {"biological_target": "Pertuzumab kappa light chain S176E_T178E (L2), N-terminal HA tag", "remark": "listed apart in the source"}, "[17]": {"biological_target": "Pertuzumab kappa light chain S131D_V133G_T178F (L2), N-terminal HA tag", "remark": "listed apart in the source"}, "[18]": {"biological_target": "Pertuzumab kappa light chain S131E_V133G_T178F (L2), N-terminal HA tag", "remark": "listed apart in the source"}, "[19]": {"biological_target": "Pertuzumab kappa light chain S176D_T178E (L2), N-terminal HA tag", "remark": "listed apart in the source"}, "[20]": {"biological_target": "Pertuzumab kappa light chain S176E_T178E (L2), N-terminal HA tag", "remark": "listed apart in the source"}, "[21]": {"biological_target": "Pertuzumab kappa light chain S131D_V133G_T178F (L2), N-terminal HA tag", "remark": "listed apart in the source"}, "[22]": {"biological_target": "Pertuzumab kappa light chain S131E_V133G_T178F (L2), N-terminal HA tag", "remark": "listed apart in the source"}, "[23]": {"biological_target": "Pertuzumab kappa light chain S176D_T178E (L2), N-terminal HA tag", "remark": "listed apart in the source"}, "[24]": {"biological_target": "Pertuzumab kappa light chain S176E_T178E (L2), N-terminal HA tag", "remark": "listed apart in the source"}, "[25]": {"biological_target": "CAT-2200 lambda light chain S176K_Y178L (L1), N-terminal FLAG tag", "remark": "listed apart in the source"}, "[26]": {"biological_target": "CAT-2200 lambda light chain S176K_Y178R (L1), N-terminal FLAG tag", "remark": "listed apart in the source"}, "[27]": {"biological_target": "CAT-2200 lambda light chain S176K_Y178K (L1), N-terminal FLAG tag", "remark": "listed apart in the source"}, "[28]": {"biological_target": "CAT-2200 lambda light chain S176K_Y178L (L1), N-terminal FLAG tag", "remark": "listed apart in the source"}, "[29]": {"biological_target": "CAT-2200 lambda light chain S176K_Y178R (L1), N-terminal FLAG tag", "remark": "listed apart in the source"}, "[30]": {"biological_target": "Pertuzumab kappa light chain V133L_S176D_T178E (L2), N-terminal HA tag"}, "[31]": {"biological_target": "Pertuzumab kappa light chain V133I_S176D_T178E (L2), N-terminal HA tag"}, "[32]": {"biological_target": "Pertuzumab kappa light chain V133I_S176E_T178E (L2), N-terminal HA tag"}, "[33]": {"biological_target": "Pertuzumab kappa light chain V133L_S176D_T178E (L2), N-terminal HA tag", "remark": "listed apart in the source"}, "[34]": {"biological_target": "Pertuzumab kappa light chain V133I_S176E_T178E (L2), N-terminal HA tag", "remark": "listed apart in the source"}, "[35]": {"biological_target": "CAT-2200 lambda light chain S176K_Y178K (L1), N-terminal FLAG tag", "remark": "listed apart in the source"}}, "note": "Where two headings read alike, the source gives them in different places."}
{"substance": "Pertuzumab Fab heavy chain L143K (H2), ABD2-His6 tagged", "values": [{"measurement": "H2L2:H2L1 normalized median ratio", "setting": "[1]", "result": 88, "unit": "%"}, {"measurement": "H2L2:H2L1 normalized median scalar value ln(r1/f1)", "setting": "[1]", "result": 1.95}, {"measurement": "H2L2:H2L1 normalized median ratio", "setting": "[2]", "result": 80, "unit": "%"}, {"measurement": "H2L2:H2L1 normalized median scalar value ln(r1/f1)", "setting": "[2]", "result": 1.39}, {"measurement": "H2L2:H2L1 normalized median ratio", "setting": "[3]", "result": 14, "unit": "%"}, {"measurement": "H2L2:H2L1 normalized median ratio", "setting": "[4]", "result": 12, "unit": "%"}, {"measurement": "H2L2:H2L1 normalized median ratio", "setting": "[5]", "result": 86, "unit": "%"}, {"measurement": "H2L2:H2L1 normalized median scalar value ln(r1/f1)", "setting": "[5]", "result": 1.78}, {"measurement": "H2L2:H2L1 normalized median ratio", "setting": "[6]", "result": 77, "unit": "%"}, {"measurement": "H2L2:H2L1 normalized median scalar value ln(r1/f1)", "setting": "[6]", "result": 1.2}, {"measurement": "H2L2:H2L1 normalized median ratio", "setting": "[7]", "result": 93, "unit": "%"}, {"measurement": "H2L2:H2L1 normalized median scalar value ln(r1/f1)", "setting": "[7]", "result": 2.64}, {"measurement": "H2L2:H2L1 normalized median ratio", "setting": "[8]", "result": 20, "unit": "%"}]}
{"substance": "Pertuzumab Fab heavy chain S188K (H2), ABD2-His6 tagged", "values": [{"measurement": "H2L2:H2L1 normalized median ratio", "setting": "[9]", "result": 89, "unit": "%"}, {"measurement": "H2L2:H2L1 normalized median scalar value ln(r1/f1)", "setting": "[9]", "result": 2.09}, {"measurement": "H2L2:H2L1 normalized median scalar value ln(r1/f1)", "setting": "[10]", "result": 2.35}, {"measurement": "H2L2:H2L1 normalized median ratio", "setting": "[11]", "result": 90, "unit": "%"}, {"measurement": "H2L2:H2L1 normalized median scalar value ln(r1/f1)", "setting": "[11]", "result": 2.16}, {"measurement": "H2L2:H2L1 normalized median ratio", "setting": "[12]", "result": 95, "unit": "%"}, {"measurement": "H2L2:H2L1 normalized median scalar value ln(r1/f1)", "setting": "[12]", "result": 2.87}, {"measurement": "H2L2:H2L1 normalized median ratio", "setting": "[3]", "result": 14, "unit": "%"}, {"measurement": "H2L2:H2L1 normalized median ratio", "setting": "[13]", "result": 14, "unit": "%"}, {"measurement": "H2L2:H2L1 normalized median ratio", "setting": "[4]", "result": 9, "unit": "%"}, {"measurement": "H2L2:H2L1 normalized median ratio", "setting": "[14]", "result": 20, "unit": "%"}, {"measurement": "H2L2:H2L1 normalized median ratio", "setting": "[15]", "result": 80, "unit": "%"}, {"measurement": "H2L2:H2L1 normalized median scalar value ln(r1/f1)", "setting": "[15]", "result": 1.41}, {"measurement": "H2L2:H2L1 normalized median scalar value ln(r1/f1)", "setting": "[16]", "result": 2.67}, {"measurement": "H2L2:H2L1 normalized median ratio", "setting": "[17]", "result": 86, "unit": "%"}, {"measurement": "H2L2:H2L1 normalized median scalar value ln(r1/f1)", "setting": "[17]", "result": 1.85}, {"measurement": "H2L2:H2L1 normalized median scalar value ln(r1/f1)", "setting": "[18]", "result": 2.77}, {"measurement": "H2L2:H2L1 normalized median ratio", "setting": "[19]", "result": 86, "unit": "%"}, {"measurement": "H2L2:H2L1 normalized median scalar value ln(r1/f1)", "setting": "[19]", "result": 1.83}, {"measurement": "H2L2:H2L1 normalized median scalar value ln(r1/f1)", "setting": "[20]", "result": 2.75}, {"measurement": "H2L2:H2L1 normalized median ratio", "setting": "[21]", "result": 85, "unit": "%"}, {"measurement": "H2L2:H2L1 normalized median scalar value ln(r1/f1)", "setting": "[21]", "result": 1.77}, {"measurement": "H2L2:H2L1 normalized median scalar value ln(r1/f1)", "setting": "[22]", "result": 2.17}, {"measurement": "H2L2:H2L1 normalized median ratio", "setting": "[23]", "result": 86, "unit": "%"}, {"measurement": "H2L2:H2L1 normalized median scalar value ln(r1/f1)", "setting": "[23]", "result": 1.78}, {"measurement": "H2L2:H2L1 normalized median ratio", "setting": "[24]", "result": 95, "unit": "%"}, {"measurement": "H2L2:H2L1 normalized median scalar value ln(r1/f1)", "setting": "[24]", "result": 2.96}, {"measurement": "H2L2:H2L1 normalized median ratio", "setting": "[25]", "result": 5, "unit": "%"}, {"measurement": "H2L2:H2L1 normalized median ratio", "setting": "[26]", "result": 5, "unit": "%"}, {"measurement": "H2L2:H2L1 normalized median ratio", "setting": "[27]", "result": 14, "unit": "%"}, {"measurement": "H2L2:H2L1 normalized median ratio", "setting": "[28]", "result": 15, "unit": "%"}, {"measurement": "H2L2:H2L1 normalized median ratio", "setting": "[29]", "result": 11, "unit": "%"}]}
{"substance": "Pertuzumab Fab heavy chain V177I_S188K (H2), ABD2-His6 tagged", "values": [{"measurement": "H2L2:H2L1 normalized median ratio", "setting": "[3]", "result": 9, "unit": "%"}, {"measurement": "H2L2:H2L1 normalized median scalar value ln(r1/f1)", "setting": "[30]", "result": 0.55}, {"measurement": "H2L2:H2L1 normalized median ratio", "setting": "[31]", "result": 91, "unit": "%"}, {"measurement": "H2L2:H2L1 normalized median scalar value ln(r1/f1)", "setting": "[31]", "result": 2.34}, {"measurement": "H2L2:H2L1 normalized median scalar value ln(r1/f1)", "setting": "[32]", "result": 2.83}, {"measurement": "H2L2:H2L1 normalized median ratio", "setting": "[33]", "result": 91, "unit": "%"}, {"measurement": "H2L2:H2L1 normalized median scalar value ln(r1/f1)", "setting": "[33]", "result": 2.37}, {"measurement": "H2L2:H2L1 normalized median scalar value ln(r1/f1)", "setting": "[34]", "result": 2.79}, {"measurement": "H2L2:H2L1 normalized median ratio", "setting": "[35]", "result": 9, "unit": "%"}]}
